# Reference: the supplement of paper PMC12764529
# ± gives the half width of the 95% confidence interval.
# Assay: folding stability dG unfold (combined trypsin and chymotrypsin); higher = more stable
# Procedure: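 Folding stability of de novo designed mini-proteins (<80 aa, no Cys; designed by TrROS, TrMRF, ProteinMPNN and the joint model) was measured by cDNA display proteolysis with trypsin and chymotrypsin. Each protease was used at 11 concentrations in a threefold dilution series plus a no-protease condition. K50 was inferred by Bayesian fitting of sequencing counts, and dG unfold was derived against a sequence-predicted unfolded-state K50 (Tsuboyama et al. method). Sequences shown include variable-length N-terminal GS-type padding (SAGGSAGG...) inside a display construct carrying a PA tag. Rows were kept only if the AF2 dimer inter-PAE was >15, to exclude likely homo-oligomers.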
row,Sequence,folding stability dG unfold
1,GEVLVAKIELKVKKKLPEKPEEVEEKLELEFVAPIDNPEALEKAEEIAKKLAEEIGATEVKIKVEPYILPES [r1_346_TrMRF],< -1 kcal/mol
2,GMILFKVKLTDPKGKKEIAEVDIPIPVPEEVLPAMPEELKEKLREEAEKAAEEIREKLGNVLVEPEFTLLES [r1_115_JUSTAS],< -1 kcal/mol
3,MKVLKTETKPIPGSGKIEVRVEYEVDGFFDPATGKPYSPDYLVTEKKTITVPPDSDDEIVTSSITFHPNLKS [r1_147_JUSTAS],< -1 kcal/mol
4,PEPGAVETRETDYIDPNNNNKYKATITTTRDPNSDLATVNTTIKLPNGETLNYSATINPNPGTVTSTTSISS [r1_144_JUSTAS],-0.628 ± 0.48 kcal/mol
5,SAALGPEKAEELAEALARELAEKAGVEKVEAKVEPLPDERWVAEIYFPPVGKKARVVFEKDKPRLVEVGSAG [r14_925_TrMRF],< -1 kcal/mol
6,SAGDALKEAAKNGKPAELPIRFHFYQIKEPERDKDGGPRYKMKPIHTVEFPIRVDKVDPGNGDIKIDMPSAG [r5_5_TrROS],< -1 kcal/mol
7,SAGDRKVIHINGFEPEQFRKIIREAKDKGPPGDRIWIPSPEYVDELKELDPNLPVEVHNMDNGEWQEIESAG [r5_391_TrROS],< -1 kcal/mol
8,SAGFDFPEDFTPIARDGVNSLWQGDGPVLLALRGPEGGSAVLPFKPGNPEEIFPLIEALAAGGVVDPSFSAG [r14_12_TrMRF],< -1 kcal/mol
9,SAGGAMTPDGTSVTIPYEAKTPTGEASEEEARERIEEELAARPDVALTRVEFEREGDRIKATVYTRVPRSAG [r5_688_JUSTAS],< -1 kcal/mol
10,SAGGDIEVEPTDNMPQVEIRDPEGKERKIVMPPNPNGQYNIQVHNPDDGKKKTFPVRSVDDALEWLKSAGGS [r8_230_TrROS],< -1 kcal/mol
11,SAGGDKIQEKLQKEGGFRPTNTEVNGGKPKIHIHWPNPERRKKLKEKLKKDPGIEEVQIQPMDPEDMSAGGS [r16_671_TrROS],< -1 kcal/mol
12,SAGGDNRQEREFHIPDPDGEDINITMEYNPSNGRTRVKVQPPEDGKPIKEIPADEMPPEAQDILKKISAGGS [r8_32_TrROS],< -1 kcal/mol
13,SAGGDWLDNFPPGWKIKLERPNGKPKTYTIPPNSSPDDLKKLKLPNGYKLKIDEVTPNGQMTFRLPPSAGGS [r16_103_TrROS],< -1 kcal/mol
14,SAGGDYVSITIDDPNPGMPPEELAQEIIRELNPDGFPIKPKKIEPERHDGRPKVTITFRVDDPEAIKKSAGG [r13_979_TrROS],< -1 kcal/mol
15,SAGGEDIIKELLDQLPPGDKNAVLEFDPPDGKLEPKEPSPGGYMFEPKNPENGEKWTFVIRDDKIEPVSAGG [r13_803_TrROS],< -1 kcal/mol
16,SAGGEISIMFKSPEGVKEIAEELEENGLEVDVSPVPGYWMVRIQPKPKPPPTPEAAEKAQRDPDQANKSAGG [r13_8_TrROS],< -1 kcal/mol
17,SAGGFNLKIMPMRMPRRKYDPEDGEPKKPEPVKMWMIQVEAKPGQTVSEIADELQKEFPGDNIMVMPSAGGS [r8_30_TrROS],< -1 kcal/mol
18,SAGGFPISIERWDPDGKKRRREIPMDDPDEIKEFLDDLPPDRPVRIHMPNPQHFNALKNAGFDEVEMMSAGG [r13_476_TrROS],< -1 kcal/mol
19,SAGGFYRLKIYNPDNGQPIEFPINWDEVEEAIKNGDLDELAEHYPGAPIDKIEVEPVKPVPPVPPDEKSAGG [r13_629_TrROS],< -1 kcal/mol
20,SAGGGMEIVTTKESTLPEDVKVKESTTTFPDGTSIKTVTLTSPKPGDTKTITIPVKPGGPGLSTTVTESAGG [r13_323_JUSTAS],< -1 kcal/mol
21,SAGGGMRPVPVSEIIAKLKEEGYTVSKVSVYRPGSGEKLGTYDPNTPVVIPADEPDAVIEPVVEPKGSAGGS [r8_243_JUSTAS],< -1 kcal/mol

row,Sequence,folding stability dG unfold
1,SAGGGPPLRVSTESEVYEDPETGVTYVRRRIHVEGGLVVEEELKETVNPEDPGAEVTLVSRRESPALSAGGS [r8_241_JUSTAS],< -1 kcal/mol
2,SAGGIKELADEGAEIKDVTWPVRFPDGNPMRITEIKPTDGGLDIRFEPPNDGREQEHPIPPDNIEPLPSAGG [r13_340_TrROS],< -1 kcal/mol
3,SAGGIKPGQQWRIRSPNGPIPIRVRGGQIKIRNNDNGKKRTYPVPGDTIEEIVDDLRDHPGMEIEPLSAGGS [r16_583_TrROS],< -1 kcal/mol
4,SAGGIRIRPGQKIEDIEFEVEKNPDGEPPIKVKIRWPDKGKPHTYTMTPGQDVGNFADKNGWPIEVVSAGGS [r16_676_TrROS],< -1 kcal/mol
5,SAGGITLKEIREALKKGHMMRIEGPDGGKRRIPIDDLKDMPGIKPGMPLEDLKVRKIEWVPPDDGQPMSAGG [r13_587_TrROS],< -1 kcal/mol
6,SAGGIWIDNPDQILDQIKENPNQPRTIQVPMDPDNGQIPPDIKKALKEPGMPVQHDPNGYMTFKIPPSAGGS [r16_335_TrROS],< -1 kcal/mol
7,SAGGKELVEKLLAEGGVKPVKIETKEGKPKIEVLAPKPELGKKLVEKLKKDPRIEEVNIKPYKPEELSAGGS [r16_671_TrMRF],< -1 kcal/mol
8,SAGGKITIEMPEDGMYRITIRNPNKGEPVSEIPIPANQIQELAKENGEPMPIEDIVRKLGYPIEIERYSAGG [r13_836_TrROS],< -1 kcal/mol
9,SAGGMEEKVINIPLSNGEEATITITIENEPGKNKAIVPINSKSVPAEELAKKLKKELPESITDLTVVKSAGG [r13_404_JUSTAS],< -1 kcal/mol
10,SAGGMIIDDPDALLDAIKENPNTPLVFLVPTDPATGTVDPAVIDAVVEPGFPVERDPDGYVRFIFPKSAGGS [r16_335_TrMRF],< -1 kcal/mol
11,SAGGMKAKIIPFTVAGGAYEPETGELKKPVPVKVTLIEVEPEPDVKVEEIAEEFEKAFPGKGVIVAPSAGGS [r8_30_TrMRF],< -1 kcal/mol
12,SAGGMPLEKIKEIKLVKEKEDGEKEILIVVEDPELVKEGNVEEVKKLAEALAEELKKKGIKVKIEVKPSAGG [r13_243_TrROS_Hall],< -1 kcal/mol
13,SAGGMPPGQKKTITLEMNEPGYFRIHNPNGGQEREFPINPDQSPSEFLDWAEDFAEDYGYPVEIEWHSAGGS [r16_446_TrROS],< -1 kcal/mol
14,SAGGMSPNQKVTIEIDNWHPGPGGNYFNVRIRNPGNGKPREINGPGDNPEDMKKEIEELVKAGPIEIYSAGG [r13_286_TrROS],< -1 kcal/mol
15,SAGGMTKTYDPNGRTITELPDGTVVETTVDPSKPLTKVTTTTVEGDNVVSSTEILQEVSLPETSPYLSAGGS [r8_142_JUSTAS],< -1 kcal/mol
16,SAGGMTLESEVTTLPDGTVVTKTTTVYPDGTVTTKTTTTSVPAGPPTVVRTLPDGSRVRDPTGEWTALSAGG [r13_151_JUSTAS],< -1 kcal/mol
17,SAGGMVVITTDDPDDLERLAEAVEELKRALAEAGATEPGVKVDVVIEKRPTPDGTLRYVAPVFVGLPSAGGS [r16_591_TrMRF],< -1 kcal/mol
18,SAGGNLKIEMGDNPHEIPVDPNQVDTPEEAIEEVADQIRNRFPQFGPFRVRVETEGGKEIAMINIKPKSAGG [r13_257_TrROS],< -1 kcal/mol
19,SAGGPGPPPLEPVVVPVDDGVAVFTRSPDGSLHVEIGPRSGPVVASATAPLPEDSELTVDAVVLPEELSAGG [r13_584_TrMRF],< -1 kcal/mol
20,SAGGPKIDVEKEKSPERGRRKIEIRWPGSGQEMDIFLPDDDPDKIAKALQNAPFGSFHEAIREALRDSAGGS [r8_484_TrROS],< -1 kcal/mol
